Reference: publication PMC10003956, “To the Understanding of Catalysis by D-Amino Acid Transaminases: A Case Study of the Enzyme from Aminobacterium colombiense” (Molecules, 2023)

Tests used:
purified protein [1] = substrate: N[C@H](CCC(=O)O)C(=O)O; experiment: purified protein; assay type: biochemical, Aminobacterium colombiense; settings: 500 mM pyruvate, 60 µM PLP, 50 mM K-phosphate, pH 8.0, 60 °C
purified protein [2] = substrate: O=C(O)CCC(=O)C(=O)O; experiment: purified protein; assay type: biochemical, Aminobacterium colombiense; settings: 500 mM D-alanine, 60 µM PLP, 50 mM CHES, pH 9.0, 60 °C

B1: AmicoTA (Aminobacterium colombiense DSM 12261) (protein)
chain: MNLCYIDGKFLPLEEAKLPVTDLIIQRGVGVFETISTHSRRPLMLTPHLKRLEGSATASSIVMPATLDEMARIIREGIKKMGCETMVRPYITGGDSFGKDHLFSSSRYFVIFEEIRKPDPILYEKGVALHPINAERYLPSTKSINYMLSFTGQRDSKGAYEILYCPEGEIVEGSHSTFFLIKNGHLITAPTSRALSGTTRQIVLELARRGNIQVEERCPLLTELPEAEEAFITGTVKELLPVVRIGDQIIGNGVPGKLTKHLHQVYLSSIVEWLE
notes: N-terminal His6-TEV tag kept for kinetics, cut for crystals; E. coli Rosetta (DE3) pLysS
Purified protein [1]
  Km: 5.2 ± 0.6 mM
  kcat: 1.4 ± 0.06 s⁻¹
  kcat/Km: 270 ± 40 M⁻¹ s⁻¹
Purified protein [2]
  Km: 7.2 ± 0.8 mM
  kcat: 9.9 ± 1.3 s⁻¹
  kcat/Km: 1380 ± 330 M⁻¹ s⁻¹
